Assay results from patent US20260226168A1 (CHIA TAI TIANQING PHARMACEUTICAL GROUP, published 2026).
Blank lines part the entries; values can stand above or below the binder they belong to.

Target: T1, T cell surface CD3 (human, UniProt P07766 23-207)
T1 construct: whole, on cells
Assay: flow cytometry on human CD3+ T cells
Method: Human PBMCs (peripheral blood mononuclear cells) were sorted for CD3⁺ T cells using CD3 magnetic beads (Miltenyi, Cat. No. 130-097-043). The cryopreserved PBMCs were thawed, and washed by centrifugation twice for counting. The running buffer (MACS, Cat. No. 130-091-221) was added at a ratio of 80 μL per 10⁷ cells, and the CD3 magnetic beads were added at a ratio of 20 μL CD3 magnetic beads per 10⁷ cells. The mixture was mixed well and incubated at 4° C. for 15 min. The running buffer was added at a ratio of 1-2 mL per 10⁷ cells for washing the cells. The mixture was centrifuged, the supernatant was discarded, and 500 μL of running buffer was added to resuspend the cell pellet. The LS sorting column (Miltenyi, Cat. No. 130-042-401) was placed on the MidiMACS Starting Kit (LS) magnetic rack (Miltenyi, Cat. No. 130-091-051). After rinsing, the cell suspension was added and washed thrice. The LS sorting column was removed from the magnetic rack and placed on a clean centrifuge tube and 5 mL buffer was added to collect the sorted CD3⁺ T cells.
After counting, the CD3⁺ T cells were adjusted to a cell density of 1×10⁶-2×10⁶ cells/mL using running buffer, and seeded in a 96-well U-bottom cell culture plate (Costar, Cat. No. 3799) at 50 μL per well. Different concentrations of the anti-GPRC5D/anti-CD3 bispecific antibodies were prepared using running buffer. The highest concentration of the antibodies was 200 nM, and the antibodies were serially diluted 5-fold to obtain a total of 10 concentration gradients. The antibodies at different concentrations were added to the 96-well cell culture plate described above at 50 μL per well, mixed well and incubated at 4° C. for 1 h. The cells were washed with pre-cooled running buffer (MACS, Cat. No. 130-091-221), and then the supernatant was discarded. Pre-cooled PE-conjugated goat anti-human IgG Fcγ antibody (Jackson Immuno Research, Cat. No. 109-116-170) was added, and the cells were resuspended at 100 μL/well. The mixture was mixed well and incubated at 4° C. for 30 min. […]

T1 sequence (P07766 23-207): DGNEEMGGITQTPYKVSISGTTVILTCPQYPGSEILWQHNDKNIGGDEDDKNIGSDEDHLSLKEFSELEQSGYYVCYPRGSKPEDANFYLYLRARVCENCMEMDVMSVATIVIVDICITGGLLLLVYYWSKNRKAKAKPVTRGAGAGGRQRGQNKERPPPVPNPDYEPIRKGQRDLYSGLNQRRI

Top(MFI): 54700
B1: GC35 (bispecific antibody, human IgG1, kappa, L234A L235A)
heavy: EVQLVQSGAEVVKPGASVKMSCKASGYTFTNYVMHWVKQAPGQGLEWMGYFNPYNDGTNYNEKFKGRVTLTSDTSANTAYMELSSLRSEDTAVYYCARGGVRRYFDVWGQGTTVTVSSASTKGPSVFPLAPSSKSTSGGTAALGCLVKDYFPEPVTVSWNSGALTSGVHTFPAVLQSSGLYSLSSVVTVPSSSLGTQTYICNVNHKPSNTKVDKKVEPKSCDKTHTCPPCPAPEAAGGPSVFLFPPKPKDTLMISRTPEVTCVVVDVSHEDPEVKFNWYVDGVEVHNAKTKPREEQYNSTYRVVSVLTVLHQDWLNGKEYKCKVSNKALAAPIEKTISKAKGQPREPQVCTLPPSREEMTKNQVSLSCAVKGFYPSDIAVEWESNGQPENNYKTTPPVLDSDGSFFLVSKLTVDKSRWQQGNVFSCSVMHEALHNHYTQKSLSLSPGK
light: DIQMTQSPSSLSASVGDRVTITCRASQDIGSNLNWLQLGPGGAIKRLIYATFSLDSGVPSRFSGSRSGSDYTLTISSLQPEDFVDYYCQQYANFPPTFGGGTKVEIKRTVAAPSVFIFPPSDEQLKSGTASVVCLLNNFYPREAKVQWKVDNALQSGNSQESVTEQDSKDSTYSLSSTLTLSKADYEKHKVYACEVTHQGLSSPVTKSFNRGEC
scFv: ELVVTQEPSLTTSPGGTVTLTCRSSTGAVTTSNYANWVQQKPGQAPRGLIGGTNKRAPGTPARFSGSLLGGKAALTITGVQPEDEAEYYCALWYSNLWVFGGGTKLTVLGGGGSGGGGSGGGGSEVQLVESGGGLVQPGGSLRLSCAASGFTFNTYAMNWVRQAPGKGLEWVARIRSKYNNYATYYADSVKDRFTISRDDSKNTAYLQMNNLKTEDTAMYYCVRHGNFGNSYVSWFAYWGQGTLVTVSSGEPKSSDKTHTCPPCPAPEAAGGPSVFLFPPKPKDTLMISRTPEVTCVVVDVSHEDPEVKFNWYVDGVEVHNAKTKPREEQYNSTYRVVSVLTVLHQDWLNGKEYKCKVSNKALAAPIEKTISKAKGQPREPQVYTLPPCREEMTKNQVSLWCLVKGFYPSDIAVEWESNGQPENNYKTTPPVLDSDGSFFLYSKLTVDKSRWQQGNVFSCSVMHEALHNRYTQKSLSLSPGK
notes: also called anti-GPRC5D/anti-CD3 bispecific antibody GC35

Top(MFI): 38000
B2: GC39 (bispecific antibody, human IgG1, kappa, L234A L235A)
heavy: EVQLVESGGGLVQPGGSRRVSCAASGFTFSSFGMHWVRQAPGKGLEWVAYISRGSSTIYYADTVKGRFTISRDNAKNSLYLQMNSLRAEDTAVYYCARSGYGSSSYYFDYWGQGTTVTVSSASTKGPSVFPLAPSSKSTSGGTAALGCLVKDYFPEPVTVSWNSGALTSGVHTFPAVLQSSGLYSLSSVVTVPSSSLGTQTYICNVNHKPSNTKVDKKVEPKSCDKTHTCPPCPAPEAAGGPSVFLFPPKPKDTLMISRTPEVTCVVVDVSHEDPEVKFNWYVDGVEVHNAKTKPREEQYNSTYRVVSVLTVLHQDWLNGKEYKCKVSNKALAAPIEKTISKAKGQPREPQVCTLPPSREEMTKNQVSLSCAVKGFYPSDIAVEWESNGQPENNYKTTPPVLDSDGSFFLVSKLTVDKSRWQQGNVFSCSVMHEALHNHYTQKSLSLSPGK
light: EIVLTQSPATLSASPGERATMSCRASSSIRSSYLHWYQQKPGQSPRLWIYSTSNLASGVPARFSGSGSGTDYTLTISSLEPEDAAVYYCQQFSGYPLTFGGGTKVEIKRTVAAPSVFIFPPSDEQLKSGTASVVCLLNNFYPREAKVQWKVDNALQSGNSQESVTEQDSKDSTYSLSSTLTLSKADYEKHKVYACEVTHQGLSSPVTKSFNRGEC
scFv: B1 scFv
notes: also called anti-GPRC5D/anti-CD3 bispecific antibody GC39

Top(MFI): 155000
B3: Talquetamab (bispecific antibody, human IgG4 S228P, kappa, lambda, F234A L235A)
heavy 1: not shown
light 1: DIQMTQSPSSLSASVGDRVTITCKASQNVATHVGWYQQKPGKAPKRLIYSASYRYSGVPSRFSGSGSGTEFTLTISNLQPEDFATYYCQQYNRYPYTFGQGTKLEIKRTVAAPSVFIFPPSDEQLKSGTASVVCLLNNFYPREAKVQWKVDNALQSGNSQESVTEQDSKDSTYSLSSTLTLSKADYEKHKVYACEVTHQGLSSPVTKSFNRGEC
heavy 2: EVQLVESGGGLVQPGGSLRLSCAASGFTFNTYAMNWVRQAPGKGLEWVARIRSKYNNYATYYAASVKGRFTISRDDSKNSLYLQMNSLKTEDTAVYYCARHGNFGNSYVSWFAYWGQGTLVTVSSASTKGPSVFPLAPCSRSTSESTAALGCLVKDYFPEPVTVSWNSGALTSGVHTFPAVLQSSGLYSLSSVVTVPSSSLGTKTYTCNVDHKPSNTKVDKRVESKYGPPCPPCPAPEAAGGPSVFLFPPKPKDTLMISRTPEVTCVVVDVSQEDPEVQFNWYVDGVEVHNAKTKPREEQFNSTYRVVSVLTVLHQDWLNGKEYKCKVSNKGLPSSIEKTISKAKGQPREPQVYTLPPSQEEMTKNQVSLTCLVKGFYPSDIAVEWESNGQPENNYKTTPPVLDSDGSFLLYSKLTVDKSRWQEGNVFSCSVMHEALHNHYTQKSLSLSLGK
light 2: QTVVTQEPSLTVSPGGTVTLTCRSSTGAVTTSNYANWVQQKPGQAPRGLIGGTNKRAPGTPARFSGSLLGGKAALTLSGVQPEDEAEYYCALWYSNLWVFGGGTKLTVLGQPKAAPSVTLFPPSSEELQANKATLVCLISDFYPGAVTVAWKADSSPVKAGVETTTPSKQSNNKYAASSYLSLTPEQWKSHRSYSCQVTHEGSTVEKTVAPTECS
notes: Four polypeptide chains (anti-GPRC5D-HC/LC, anti-CD3-HC/LC); made in house by in vitro assembly of the two parental monoclonal antibodies with 2-MEA; also called benchmark; BM
